Among the data in the supplement of paper PMC10567573 are protein stability index values, retold here.

B1: GMCL1 (parent)
chain: FCYCAGSHKRKRSSGSFCYCHPDS
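Further: lentivirally expressed fusions sorted by FACS into six bins by GFP to DsRed ratio, PSI derived from sequencing read proportions per bin multiplied by bin number.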

This data set covers variants of B1. In words: protein stability index of a GFP-peptide fusion (GPS, HEK-293T) (PSI 1-6); higher = more stable. The following applies: c terminus: a fixed tail appended.
Take FCYCAGSHKRKRSSGSACYCHPDS: the protein stability index amounted to 2.11.

Turning to FCYCAGSHKRKRSSGSLCYCHPDS, the protein stability index worked out at 2.3.

As for FCYCAGSHKRKRSSGSWCYCHPDS, the protein stability index was determined as 1.9.

As for FCYCAGSHKRKRSSGSKCYCHPDS, the protein stability index worked out at 2.17.

In the case of FCYCAGSHKRKRSSGSVCYCHPDS, the protein stability index amounted to 2.04.

Turning to FCYCAGSHKRKRSSGSICYCHPDS, the protein stability index stood at 2.05.

Turning to FCYCAGSHKRKRSSGSNCYCHPDS, the protein stability index was determined as 2.06.

As for FCYCAGSHKRKRSSGSECYCHPDS, the protein stability index is 3.01.

Consider FCYCAGSHKRKRSSGSRCYCHPDS, for which the protein stability index came out at 2.53.

Take FCYCAGSHKRKRSSGSMCYCHPDS: the protein stability index turned out to be 2.15.

FCYCAGSHKRKRSSGSYCYCHPDS: the protein stability index stood at 2.25.

For the variant FCYCAGSHKRKRSSGSSCYCHPDS, the protein stability index stood at 1.78.

As for FCYCAGSHKRKRSSGSCCYCHPDS, the protein stability index amounted to 3.2.

Take FCYCAGSHKRKRSSGSDCYCHPDS: the protein stability index amounted to 2.84.

As to FCYCAGSHKRKRSSGSQCYCHPDS, the protein stability index was 2.61.

Regarding FCYCAGSHKRKRSSGSGCYCHPDS, the protein stability index was 2.19.

For FCYCAGSHKRKRSSGSHCYCHPDS, the protein stability index came out at 2.46.

Consider FCYCAGSHKRKRSSGSPCYCHPDS, for which the protein stability index stood at 2.98.

For the variant FCYCAGSHKRKRSSGSTCYCHPDS, the protein stability index turned out to be 2.27.

In the case of FCYCAGSHKRKRSSKSFCYCHPDS, the protein stability index was determined as 1.72.

With FCYCAGSHKRKRSSTSFCYCHPDS, the protein stability index turned out to be 1.96.

FCYCAGSHKRKRSSESFCYCHPDS: the protein stability index amounted to 2.67.

For the variant FCYCAGSHKRKRSSCSFCYCHPDS, the protein stability index came to 1.5.

For the variant FCYCAGSHKRKRSSFSFCYCHPDS, the protein stability index was found to be 1.8.

As to FCYCAGSHKRKRSSSSFCYCHPDS, the protein stability index was 2.17.

For FCYCAGSHKRKRSSVSFCYCHPDS, the protein stability index is 2.6.

As to FCYCAGSHKRKRSSMSFCYCHPDS, the protein stability index was determined as 1.21.

Turning to FCYCAGSHKRKRSSLSFCYCHPDS, the protein stability index was determined as 3.16.

Consider FCYCAGSHKRKRSSRSFCYCHPDS, for which the protein stability index was determined as 1.62.

Turning to FCYCAGSHKRKRSSYSFCYCHPDS, the protein stability index was 2.56.

On to FCYCAGSHKRKRSSASFCYCHPDS, for which the protein stability index stood at 1.61.

Take FCYCAGSHKRKRSSDSFCYCHPDS: the protein stability index came out at 2.25.

Take FCYCAGSHKRKRSSNSFCYCHPDS: the protein stability index is 2.81.

FCYCAGSHKRKRSSWSFCYCHPDS: the protein stability index was found to be 2.26.

Consider FCYCAGSHKRKRSSISFCYCHPDS, for which the protein stability index amounted to 2.41.

With FCYCAGSHKRKRSSPSFCYCHPDS, the protein stability index was 1.6.

For the variant FCYCAGSHKRKRSSHSFCYCHPDS, the protein stability index was 2.07.

Take FCYCAGSHKRKRSSGSFCDCHPDS: the protein stability index amounted to 2.9.

For the variant FCYCAGSHKRKRSSGSFCWCHPDS, the protein stability index stood at 1.28.

In the case of FCYCAGSHKRKRSSGSFCVCHPDS, the protein stability index turned out to be 3.03.

FCYCAGSHKRKRSSGSFCSCHPDS: the protein stability index was 3.31.

Turning to FCYCAGSHKRKRSSGSFCNCHPDS, the protein stability index was 3.38.

As to FCYCAGSHKRKRSSGSFCFCHPDS, the protein stability index was 2.31.

Regarding FCYCAGSHKRKRSSGSFCQCHPDS, the protein stability index is 3.03.

Consider FCYCAGSHKRKRSSGSFCPCHPDS, for which the protein stability index was 3.37.

For the variant FCYCAGSHKRKRSSGSFCKCHPDS, the protein stability index was 3.4.

Consider FCYCAGSHKRKRSSGSFCCCHPDS, for which the protein stability index amounted to 2.86.

As to FCYCAGSHKRKRSSGSFCLCHPDS, the protein stability index is 1.96.

As to FCYCAGSHKRKRSSGSFCECHPDS, the protein stability index came to 3.63.

Regarding FCYCAGSHKRKRSSGSFCICHPDS, the protein stability index worked out at 2.52.

Turning to FCYCAGSHKRKRSSGSFCHCHPDS, the protein stability index was 2.67.

Take FCYCAGSHKRKRSSGSFCACHPDS: the protein stability index is 3.72.

Consider FCYCAGSHKRKRSSGSFCGCHPDS, for which the protein stability index is 2.52.

As for FCYCAGSHKRKRSSGSFCMCHPDS, the protein stability index worked out at 3.

On to FCYCAGSHKRKRSSGSFCRCHPDS, for which the protein stability index turned out to be 3.17.

For the variant FCYCAGSHKRKRSSGSFCTCHPDS, the protein stability index was determined as 3.6.

In the case of FCYCAGSHKRKRSSGIFCYCHPDS, the protein stability index worked out at 2.49.

FCYCAGSHKRKRSSGAFCYCHPDS: the protein stability index stood at 2.33.

FCYCAGSHKRKRSSGMFCYCHPDS: the protein stability index is 2.44.

Consider FCYCAGSHKRKRSSGHFCYCHPDS, for which the protein stability index turned out to be 2.

As for FCYCAGSHKRKRSSGWFCYCHPDS, the protein stability index was 2.06.

Turning to FCYCAGSHKRKRSSGKFCYCHPDS, the protein stability index was determined as 3.24.

As to FCYCAGSHKRKRSSGYFCYCHPDS, the protein stability index amounted to 2.14.

For FCYCAGSHKRKRSSGEFCYCHPDS, the protein stability index was 3.31.

With FCYCAGSHKRKRSSGDFCYCHPDS, the protein stability index worked out at 1.88.

On to FCYCAGSHKRKRSSGQFCYCHPDS, for which the protein stability index was determined as 1.69.

In the case of FCYCAGSHKRKRSSGLFCYCHPDS, the protein stability index came out at 1.26.

FCYCAGSHKRKRSSGCFCYCHPDS: the protein stability index came to 1.91.

In the case of FCYCAGSHKRKRSSGVFCYCHPDS, the protein stability index came to 2.16.

With FCYCAGSHKRKRSSGRFCYCHPDS, the protein stability index worked out at 1.59.

As to FCYCAGSHKRKRSSGTFCYCHPDS, the protein stability index was determined as 2.29.

Regarding FCYCAGSHKRKRSSGNFCYCHPDS, the protein stability index turned out to be 1.36.

On to FCYCAGSHKRKRSSGFFCYCHPDS, for which the protein stability index was found to be 2.41.

Regarding FCYCAGSHKRKRSSGPFCYCHPDS, the protein stability index worked out at 1.36.

Turning to FCYCAGSHKRKRSSGSFCYCHEDS, the protein stability index is 2.01.

Turning to FCYCAGSHKRKRSSGSFCYCHFDS, the protein stability index was 1.38.

Turning to FCYCAGSHKRKRSSGSFCYCHDDS, the protein stability index came to 2.78.

With FCYCAGSHKRKRSSGSFCYCHGDS, the protein stability index worked out at 2.44.

With FCYCAGSHKRKRSSGSFCYCHCDS, the protein stability index came to 2.12.

As to FCYCAGSHKRKRSSGSFCYCHHDS, the protein stability index is 2.29.

In the case of FCYCAGSHKRKRSSGSFCYCHADS, the protein stability index turned out to be 2.64.

Take FCYCAGSHKRKRSSGSFCYCHIDS: the protein stability index amounted to 1.47.

On to FCYCAGSHKRKKSSGSFCYCHPDS, for which the protein stability index turned out to be 1.97.

Consider FCYCAGSHKRKPSSGSFCYCHPDS, for which the protein stability index was 2.44.

For the variant FCYCAGSHKRKTSSGSFCYCHPDS, the protein stability index stood at 2.43.

On to FCYCAGSHKRKLSSGSFCYCHPDS, for which the protein stability index came to 1.63.

FCYCAGSHKRKQSSGSFCYCHPDS: the protein stability index is 2.33.

FCYCAGSHKRKNSSGSFCYCHPDS: the protein stability index was 2.01.

For the variant FCYCAGSHKRKYSSGSFCYCHPDS, the protein stability index worked out at 2.56.

As for FCYCAGSHKRKMSSGSFCYCHPDS, the protein stability index was 1.54.

Take FCYCAGSHKRKVSSGSFCYCHPDS: the protein stability index was 1.89.

As for FCYCAGSHKRKWSSGSFCYCHPDS, the protein stability index was determined as 2.9.

As to FCYCAGSHKRKISSGSFCYCHPDS, the protein stability index is 1.75.

For FCYCAGSHKRKSSSGSFCYCHPDS, the protein stability index was determined as 1.74.
